Measured values: the supplement of paper PMC9112550, “Optimization of the antimicrobial peptide Bac7 by deep mutational scanning” (BMC Biology, 2022)

Test system: Escherichia coli TOP10
Test: shrunken log2 fold change of peptide-encoding DNA abundance (4.5 h post-induction vs induction); higher = less antimicrobial activity (less host growth inhibition)
Conditions: time post-induction: 4.5 h; library: site-saturation at positions 5, 18, 19, 20
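Further: peptides expressed intracellularly from a pBAD plasmid library in pooled LB shake-flask culture, induced with 0.3% L-arabinose, DNA abundance read by NGS, three biological replicates, DESeq2 with apeglm shrinkage.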

## RRIRTRPPRLPRPRPRPIVNPRP
  shrunken log2 fold change: -0.655

## RRIRTRPPRLPRPRPRPIWAPRP
  shrunken log2 fold change: -0.085

## RRIRTRPPRLPRPRPRPKCCPRP
  shrunken log2 fold change: -0.133

## RRIRTRPPRLPRPRPRPKCHPRP
  shrunken log2 fold change: -0.0989

## RRIRTRPPRLPRPRPRPKDKPRP
  shrunken log2 fold change: -0.341

## RRIRTRPPRLPRPRPRPKFVPRP
  shrunken log2 fold change: 0.368

## RRIRTRPPRLPRPRPRPKGHPRP
  shrunken log2 fold change: 0.208

## RRIRTRPPRLPRPRPRPKGPPRP
  shrunken log2 fold change: 0.0618

## RRIRTRPPRLPRPRPRPKHQPRP
  shrunken log2 fold change: 0.219

## RRIRTRPPRLPRPRPRPKKAPRP
  shrunken log2 fold change: -0.0102

## RRIRTRPPRLPRPRPRPKKEPRP
  shrunken log2 fold change: -0.0512

## RRIRTRPPRLPRPRPRPKKGPRP
  shrunken log2 fold change: -0.0611

## RRIRTRPPRLPRPRPRPKKPPRP
  shrunken log2 fold change: -0.0293

## RRIRTRPPRLPRPRPRPKLKPRP
  shrunken log2 fold change: -0.0522

## RRIRTRPPRLPRPRPRPKMDPRP
  shrunken log2 fold change: 0.0289

## RRIRTRPPRLPRPRPRPKNAPRP
  shrunken log2 fold change: 0.0264

## RRIRTRPPRLPRPRPRPKNHPRP
  shrunken log2 fold change: -0.712

## RRIRTRPPRLPRPRPRPKNMPRP
  shrunken log2 fold change: -0.359

## RRIRTRPPRLPRPRPRPKNYPRP
  shrunken log2 fold change: -0.346

## RRIRTRPPRLPRPRPRPKPAPRP
  shrunken log2 fold change: 0.0421

## RRIRTRPPRLPRPRPRPKPVPRP
  shrunken log2 fold change: 0.217

## RRIRTRPPRLPRPRPRPKQYPRP
  shrunken log2 fold change: -0.379

## RRIRTRPPRLPRPRPRPKRLPRP
  shrunken log2 fold change: 0.2

## RRIRTRPPRLPRPRPRPKRSPRP
  shrunken log2 fold change: 0.207

## RRIRTRPPRLPRPRPRPKYCPRP
  shrunken log2 fold change: -0.0743

## RRIRTRPPRLPRPRPRPLAEPRP
  shrunken log2 fold change: 0.107

## RRIRTRPPRLPRPRPRPLAQPRP
  shrunken log2 fold change: 0.143

## RRIRTRPPRLPRPRPRPLCRPRP
  shrunken log2 fold change: -0.13

## RRIRTRPPRLPRPRPRPLCWPRP
  shrunken log2 fold change: 0.0326

## RRIRTRPPRLPRPRPRPLDGPRP
  shrunken log2 fold change: 0.0872

## RRIRTRPPRLPRPRPRPLDWPRP
  shrunken log2 fold change: 0.398

## RRIRTRPPRLPRPRPRPLFAPRP
  shrunken log2 fold change: 0.228

## RRIRTRPPRLPRPRPRPLFQPRP
  shrunken log2 fold change: -0.348

## RRIRTRPPRLPRPRPRPLHKPRP
  shrunken log2 fold change: 0.0334

## RRIRTRPPRLPRPRPRPLHSPRP
  shrunken log2 fold change: 0.186

## RRIRTRPPRLPRPRPRPLIAPRP
  shrunken log2 fold change: 0.112

## RRIRTRPPRLPRPRPRPLIWPRP
  shrunken log2 fold change: 0.361

## RRIRTRPPRLPRPRPRPLKFPRP
  shrunken log2 fold change: -0.27

## RRIRTRPPRLPRPRPRPLKIPRP
  shrunken log2 fold change: 0.0669

## RRIRTRPPRLPRPRPRPLKPPRP
  shrunken log2 fold change: -0.126

## RRIRTRPPRLPRPRPRPLKYPRP
  shrunken log2 fold change: -0.641

## RRIRTRPPRLPRPRPRPLLPPRP
  shrunken log2 fold change: 0.112

## RRIRTRPPRLPRPRPRPLMLPRP
  shrunken log2 fold change: -0.297

## RRIRTRPPRLPRPRPRPLMWPRP
  shrunken log2 fold change: -0.151

## RRIRTRPPRLPRPRPRPLNTPRP
  shrunken log2 fold change: -0.602

## RRIRTRPPRLPRPRPRPLREPRP
  shrunken log2 fold change: 0.318

## RRIRTRPPRLPRPRPRPLRWPRP
  shrunken log2 fold change: 0.856

## RRIRTRPPRLPRPRPRPLSHPRP
  shrunken log2 fold change: -0.833

## RRIRTRPPRLPRPRPRPLWIPRP
  shrunken log2 fold change: -0.331

## RRIRTRPPRLPRPRPRPLWTPRP
  shrunken log2 fold change: -0.0962

## RRIRTRPPRLPRPRPRPMACPRP
  shrunken log2 fold change: 0.0855

## RRIRTRPPRLPRPRPRPMAQPRP
  shrunken log2 fold change: 0.074

## RRIRTRPPRLPRPRPRPMCIPRP
  shrunken log2 fold change: -0.649

## RRIRTRPPRLPRPRPRPMCRPRP
  shrunken log2 fold change: -0.0404

## RRIRTRPPRLPRPRPRPMDCPRP
  shrunken log2 fold change: -0.0416

## RRIRTRPPRLPRPRPRPMFAPRP
  shrunken log2 fold change: -0.0818

## RRIRTRPPRLPRPRPRPMFWPRP
  shrunken log2 fold change: 0.285

## RRIRTRPPRLPRPRPRPMGIPRP
  shrunken log2 fold change: 0.049

## RRIRTRPPRLPRPRPRPMGVPRP
  shrunken log2 fold change: -0.174

## RRIRTRPPRLPRPRPRPMHQPRP
  shrunken log2 fold change: -0.0917

## RRIRTRPPRLPRPRPRPMIAPRP
  shrunken log2 fold change: 0.000989

## RRIRTRPPRLPRPRPRPMLGPRP
  shrunken log2 fold change: -0.0672

## RRIRTRPPRLPRPRPRPMMKPRP
  shrunken log2 fold change: -0.11

## RRIRTRPPRLPRPRPRPMNEPRP
  shrunken log2 fold change: -0.172

## RRIRTRPPRLPRPRPRPMPHPRP
  shrunken log2 fold change: 0.182

## RRIRTRPPRLPRPRPRPMPTPRP
  shrunken log2 fold change: 0.0982

## RRIRTRPPRLPRPRPRPMPYPRP
  shrunken log2 fold change: -0.159

## RRIRTRPPRLPRPRPRPMQRPRP
  shrunken log2 fold change: -0.0122

## RRIRTRPPRLPRPRPRPMRAPRP
  shrunken log2 fold change: 1

## RRIRTRPPRLPRPRPRPMRDPRP
  shrunken log2 fold change: 0.00292

## RRIRTRPPRLPRPRPRPMSHPRP
  shrunken log2 fold change: -0.238

## RRIRTRPPRLPRPRPRPMTYPRP
  shrunken log2 fold change: -0.0748

## RRIRTRPPRLPRPRPRPMVAPRP
  shrunken log2 fold change: 0.0166

## RRIRTRPPRLPRPRPRPMVCPRP
  shrunken log2 fold change: 0.0039

## RRIRTRPPRLPRPRPRPMVHPRP
  shrunken log2 fold change: -0.00211

## RRIRTRPPRLPRPRPRPMVNPRP
  shrunken log2 fold change: 0.0818

## RRIRTRPPRLPRPRPRPMWYPRP
  shrunken log2 fold change: -0.602

## RRIRTRPPRLPRPRPRPMYMPRP
  shrunken log2 fold change: -0.0921

## RRIRTRPPRLPRPRPRPNDHPRP
  shrunken log2 fold change: -0.0838

## RRIRTRPPRLPRPRPRPNDMPRP
  shrunken log2 fold change: -0.209

## RRIRTRPPRLPRPRPRPNFCPRP
  shrunken log2 fold change: -0.126

## RRIRTRPPRLPRPRPRPNFFPRP
  shrunken log2 fold change: 0.0096

## RRIRTRPPRLPRPRPRPNFKPRP
  shrunken log2 fold change: -0.131

## RRIRTRPPRLPRPRPRPNGQPRP
  shrunken log2 fold change: 0.149

## RRIRTRPPRLPRPRPRPNGYPRP
  shrunken log2 fold change: -0.12

## RRIRTRPPRLPRPRPRPNHDPRP
  shrunken log2 fold change: -0.3

## RRIRTRPPRLPRPRPRPNHKPRP
  shrunken log2 fold change: -0.443

## RRIRTRPPRLPRPRPRPNHWPRP
  shrunken log2 fold change: 0.0032

## RRIRTRPPRLPRPRPRPNKEPRP
  shrunken log2 fold change: -0.00295

## RRIRTRPPRLPRPRPRPNKPPRP
  shrunken log2 fold change: -0.0031

## RRIRTRPPRLPRPRPRPNLQPRP
  shrunken log2 fold change: -0.0672

## RRIRTRPPRLPRPRPRPNLVPRP
  shrunken log2 fold change: -0.149

## RRIRTRPPRLPRPRPRPNMKPRP
  shrunken log2 fold change: -0.526

## RRIRTRPPRLPRPRPRPNMSPRP
  shrunken log2 fold change: -0.562

## RRIRTRPPRLPRPRPRPNNHPRP
  shrunken log2 fold change: -0.345

## RRIRTRPPRLPRPRPRPNNSPRP
  shrunken log2 fold change: -0.61

## RRIRTRPPRLPRPRPRPNPFPRP
  shrunken log2 fold change: -0.216

## RRIRTRPPRLPRPRPRPNRFPRP
  shrunken log2 fold change: -0.00879

## RRIRTRPPRLPRPRPRPNSPPRP
  shrunken log2 fold change: -0.221

## RRIRTRPPRLPRPRPRPNTNPRP
  shrunken log2 fold change: -0.556

## RRIRTRPPRLPRPRPRPNVNPRP
  shrunken log2 fold change: 1.5

## RRIRTRPPRLPRPRPRPNWVPRP
  shrunken log2 fold change: -0.159

## RRIRTRPPRLPRPRPRPPAPPRP
  shrunken log2 fold change: 0.592

## RRIRTRPPRLPRPRPRPPCHPRP
  shrunken log2 fold change: -0.164

## RRIRTRPPRLPRPRPRPPCNPRP
  shrunken log2 fold change: -0.0091

## RRIRTRPPRLPRPRPRPPDEPRP
  shrunken log2 fold change: 0.0184

## RRIRTRPPRLPRPRPRPPFAPRP
  shrunken log2 fold change: 0.195

## RRIRTRPPRLPRPRPRPPFVPRP
  shrunken log2 fold change: 0.227

## RRIRTRPPRLPRPRPRPPGNPRP
  shrunken log2 fold change: -0.0517

## RRIRTRPPRLPRPRPRPPHTPRP
  shrunken log2 fold change: 0.0399

## RRIRTRPPRLPRPRPRPPHVPRP
  shrunken log2 fold change: 0.307

## RRIRTRPPRLPRPRPRPPKIPRP
  shrunken log2 fold change: -0.112

## RRIRTRPPRLPRPRPRPPKQPRP
  shrunken log2 fold change: -0.00507

## RRIRTRPPRLPRPRPRPPNLPRP
  shrunken log2 fold change: 0.0303

## RRIRTRPPRLPRPRPRPPNPPRP
  shrunken log2 fold change: 0.442

## RRIRTRPPRLPRPRPRPPPPPRP
  shrunken log2 fold change: 0.862

## RRIRTRPPRLPRPRPRPPRSPRP
  shrunken log2 fold change: 0.529

## RRIRTRPPRLPRPRPRPPTEPRP
  shrunken log2 fold change: 0.498

## RRIRTRPPRLPRPRPRPPTNPRP
  shrunken log2 fold change: 0.156

## RRIRTRPPRLPRPRPRPPWDPRP
  shrunken log2 fold change: 0.294

## RRIRTRPPRLPRPRPRPQATPRP
  shrunken log2 fold change: 0.119

## RRIRTRPPRLPRPRPRPQCEPRP
  shrunken log2 fold change: -0.0143

## RRIRTRPPRLPRPRPRPQDAPRP
  shrunken log2 fold change: -0.0107

## RRIRTRPPRLPRPRPRPQDQPRP
  shrunken log2 fold change: 0.0516

## RRIRTRPPRLPRPRPRPQEVPRP
  shrunken log2 fold change: -0.0102

## RRIRTRPPRLPRPRPRPQEWPRP
  shrunken log2 fold change: -0.0128

## RRIRTRPPRLPRPRPRPQFQPRP
  shrunken log2 fold change: 0.183

## RRIRTRPPRLPRPRPRPQGMPRP
  shrunken log2 fold change: 0.0427

## RRIRTRPPRLPRPRPRPQISPRP
  shrunken log2 fold change: -0.024

## RRIRTRPPRLPRPRPRPQKDPRP
  shrunken log2 fold change: -0.455

## RRIRTRPPRLPRPRPRPQKVPRP
  shrunken log2 fold change: -0.0169

## RRIRTRPPRLPRPRPRPQLYPRP
  shrunken log2 fold change: -0.0657

## RRIRTRPPRLPRPRPRPQMKPRP
  shrunken log2 fold change: -0.449

## RRIRTRPPRLPRPRPRPQMTPRP
  shrunken log2 fold change: 0.0824

## RRIRTRPPRLPRPRPRPQMYPRP
  shrunken log2 fold change: -0.148

## RRIRTRPPRLPRPRPRPQPQPRP
  shrunken log2 fold change: 0.222

## RRIRTRPPRLPRPRPRPQQYPRP
  shrunken log2 fold change: -0.0717

## RRIRTRPPRLPRPRPRPQRDPRP
  shrunken log2 fold change: 0.347

## RRIRTRPPRLPRPRPRPQRTPRP
  shrunken log2 fold change: -0.296

## RRIRTRPPRLPRPRPRPQSAPRP
  shrunken log2 fold change: -0.0745

## RRIRTRPPRLPRPRPRPQYHPRP
  shrunken log2 fold change: -0.329

## RRIRTRPPRLPRPRPRPRAIPRP
  shrunken log2 fold change: 0.196

## RRIRTRPPRLPRPRPRPRALPRP
  shrunken log2 fold change: 0.116

## RRIRTRPPRLPRPRPRPRATPRP
  shrunken log2 fold change: 0.299

## RRIRTRPPRLPRPRPRPRDWPRP
  shrunken log2 fold change: 0.483

## RRIRTRPPRLPRPRPRPREDPRP
  shrunken log2 fold change: -0.147

## RRIRTRPPRLPRPRPRPREFPRP
  shrunken log2 fold change: 0.33

## RRIRTRPPRLPRPRPRPREKPRP
  shrunken log2 fold change: -0.00088

## RRIRTRPPRLPRPRPRPRFCPRP
  shrunken log2 fold change: 0.443

## RRIRTRPPRLPRPRPRPRFEPRP
  shrunken log2 fold change: 0.0138
